Measured values reported in patent publication US20250188154A1.

Key:
[1] = biological target: SARS-CoV-2 Spike-2P stabilized S ectodomain trimer (SARS-CoV-2) (UniProt P0DTC2); assay: SPR
SARS-CoV-2 spike-HexaPro = assay: SPR
rhFcγRI/CD64 (human) = rhFcγRI/CD64 (human) (UniProt P12314); assay: SPR, DH1042 captured on CM5, receptor titrated
rhFcγRIIIA/CD16a (human) = rhFcγRIIIA/CD16a (human) (UniProt P08637); assay: SPR, DH1042 captured on CM5, receptor titrated
[2] = biological target: Cent B, centromere B (human) (UniProt P07199); assay: AtheNA Luminex, mAb at 25 (mg/mL [sic]); <100 negative
Chain of UniProt P07199 (P07199 2-599): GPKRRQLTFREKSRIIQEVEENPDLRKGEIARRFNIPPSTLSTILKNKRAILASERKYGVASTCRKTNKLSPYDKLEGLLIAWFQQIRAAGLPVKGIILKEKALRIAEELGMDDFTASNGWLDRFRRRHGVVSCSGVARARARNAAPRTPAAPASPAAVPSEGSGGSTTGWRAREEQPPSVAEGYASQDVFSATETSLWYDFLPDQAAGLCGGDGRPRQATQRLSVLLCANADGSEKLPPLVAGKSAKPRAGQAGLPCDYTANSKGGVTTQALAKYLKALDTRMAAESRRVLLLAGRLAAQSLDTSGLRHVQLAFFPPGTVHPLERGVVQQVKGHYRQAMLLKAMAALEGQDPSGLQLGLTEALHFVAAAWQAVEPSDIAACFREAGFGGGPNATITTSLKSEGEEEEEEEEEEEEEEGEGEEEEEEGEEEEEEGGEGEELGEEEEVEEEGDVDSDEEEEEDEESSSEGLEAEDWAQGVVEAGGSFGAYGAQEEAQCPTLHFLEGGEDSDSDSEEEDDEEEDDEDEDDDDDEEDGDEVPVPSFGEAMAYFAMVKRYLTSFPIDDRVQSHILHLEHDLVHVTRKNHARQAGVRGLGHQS

Histone (human) [3] = assay: as above
Jo 1 (human) [4] = biological target: Jo 1 (human) (UniProt P12081); assay: as above
Chain of UniProt P12081 (P12081 2-509): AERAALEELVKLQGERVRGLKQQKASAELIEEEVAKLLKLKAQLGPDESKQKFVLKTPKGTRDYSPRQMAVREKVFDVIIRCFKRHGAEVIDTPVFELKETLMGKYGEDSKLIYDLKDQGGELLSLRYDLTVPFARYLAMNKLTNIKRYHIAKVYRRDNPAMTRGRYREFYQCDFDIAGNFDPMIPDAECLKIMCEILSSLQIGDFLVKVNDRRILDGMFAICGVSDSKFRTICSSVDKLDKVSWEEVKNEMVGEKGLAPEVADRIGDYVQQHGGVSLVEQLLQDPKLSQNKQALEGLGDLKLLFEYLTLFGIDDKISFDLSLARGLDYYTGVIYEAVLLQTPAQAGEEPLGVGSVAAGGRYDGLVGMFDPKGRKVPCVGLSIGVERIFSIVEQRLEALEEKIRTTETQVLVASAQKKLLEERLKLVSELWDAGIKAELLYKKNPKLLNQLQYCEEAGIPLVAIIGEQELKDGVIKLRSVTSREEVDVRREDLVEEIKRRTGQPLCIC

[5] = biological target: RNP, ribonucleoprotein (human) (UniProt Q96LT9); assay: as above
Chain of UniProt Q96LT9 (Q96LT9 whole entry): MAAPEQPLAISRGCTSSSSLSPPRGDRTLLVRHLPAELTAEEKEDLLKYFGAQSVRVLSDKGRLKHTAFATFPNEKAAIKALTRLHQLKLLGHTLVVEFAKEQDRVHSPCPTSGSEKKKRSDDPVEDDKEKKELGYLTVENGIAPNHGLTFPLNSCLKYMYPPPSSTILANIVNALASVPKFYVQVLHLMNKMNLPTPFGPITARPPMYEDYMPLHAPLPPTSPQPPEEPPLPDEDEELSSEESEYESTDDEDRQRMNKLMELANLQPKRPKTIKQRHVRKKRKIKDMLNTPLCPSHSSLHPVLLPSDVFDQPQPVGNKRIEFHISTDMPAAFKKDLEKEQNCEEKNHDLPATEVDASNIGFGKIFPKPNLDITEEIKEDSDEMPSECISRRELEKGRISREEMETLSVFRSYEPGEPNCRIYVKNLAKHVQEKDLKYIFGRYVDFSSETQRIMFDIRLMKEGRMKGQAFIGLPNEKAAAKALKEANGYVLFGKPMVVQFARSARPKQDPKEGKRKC

[6] = biological target: SSA, Sjogren's syndrome antigen A (human); assay: as above
[7] = biological target: SSB, Sjogren's syndrome antigen B (human) (UniProt P05455); assay: as above
Chain of UniProt P05455 (P05455 whole entry): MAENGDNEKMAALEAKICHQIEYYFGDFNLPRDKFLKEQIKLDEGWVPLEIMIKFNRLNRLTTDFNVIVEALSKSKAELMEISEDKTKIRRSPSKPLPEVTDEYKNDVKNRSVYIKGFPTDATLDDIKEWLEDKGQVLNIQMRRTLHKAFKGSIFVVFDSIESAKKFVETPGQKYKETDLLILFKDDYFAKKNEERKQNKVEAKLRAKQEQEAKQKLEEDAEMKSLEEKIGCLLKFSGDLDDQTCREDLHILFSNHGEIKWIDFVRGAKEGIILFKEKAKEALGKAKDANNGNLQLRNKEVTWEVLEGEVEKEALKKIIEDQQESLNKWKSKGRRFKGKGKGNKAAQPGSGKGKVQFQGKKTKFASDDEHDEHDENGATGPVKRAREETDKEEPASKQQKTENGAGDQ

[8] = biological target: Scl 70, scleroderma 70 (human) (UniProt P11387); assay: as above
Chain of UniProt P11387 (P11387 2-765): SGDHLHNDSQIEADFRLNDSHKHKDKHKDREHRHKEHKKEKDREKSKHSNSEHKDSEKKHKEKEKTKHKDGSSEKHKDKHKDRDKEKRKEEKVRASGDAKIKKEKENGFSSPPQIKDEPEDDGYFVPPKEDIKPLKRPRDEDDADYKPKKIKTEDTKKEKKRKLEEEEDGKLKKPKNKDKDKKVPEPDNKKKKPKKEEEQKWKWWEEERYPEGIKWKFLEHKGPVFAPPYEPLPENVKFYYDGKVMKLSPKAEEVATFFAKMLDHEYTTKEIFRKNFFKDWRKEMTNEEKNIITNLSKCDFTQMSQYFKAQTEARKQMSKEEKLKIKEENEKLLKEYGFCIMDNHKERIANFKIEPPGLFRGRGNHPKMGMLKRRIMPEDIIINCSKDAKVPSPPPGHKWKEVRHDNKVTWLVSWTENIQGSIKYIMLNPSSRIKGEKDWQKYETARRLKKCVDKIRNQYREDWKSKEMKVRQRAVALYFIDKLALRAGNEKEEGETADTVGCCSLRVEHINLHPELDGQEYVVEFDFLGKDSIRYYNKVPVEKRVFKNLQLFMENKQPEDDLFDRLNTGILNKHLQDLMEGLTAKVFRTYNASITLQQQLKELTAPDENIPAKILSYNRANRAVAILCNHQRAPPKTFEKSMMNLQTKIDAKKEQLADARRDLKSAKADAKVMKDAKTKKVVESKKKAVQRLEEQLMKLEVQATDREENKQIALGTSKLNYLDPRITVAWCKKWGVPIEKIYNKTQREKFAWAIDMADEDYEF

[9] = biological target: Sm, small nuclear riboproteins (human); assay: as above
[10] = biological target: Cent B, centromere B (human) (UniProt P07199); assay: AtheNA Luminex, mAb at 50 (mg/mL [sic]); <100 negative
Histone (human) [11] = assay: as above
Jo 1 (human) [12] = biological target: Jo 1 (human) (UniProt P12081); assay: as above
[13] = biological target: RNP, ribonucleoprotein (human) (UniProt Q96LT9); assay: as above
[14] = biological target: SSA, Sjogren's syndrome antigen A (human); assay: as above
[15] = biological target: SSB, Sjogren's syndrome antigen B (human) (UniProt P05455); assay: as above
[16] = biological target: Scl 70, scleroderma 70 (human) (UniProt P11387); assay: as above
[17] = biological target: Sm, small nuclear riboproteins (human); assay: as above
[18] = biological target: Cent B, centromere B (human) (UniProt P07199); assay: AtheNA Luminex, mAb at 12.5 (mg/mL [sic]); <100 negative
Histone (human) [19] = assay: as above
Jo 1 (human) [20] = biological target: Jo 1 (human) (UniProt P12081); assay: as above
[21] = biological target: RNP, ribonucleoprotein (human) (UniProt Q96LT9); assay: as above
[22] = biological target: SSA, Sjogren's syndrome antigen A (human); assay: as above
[23] = biological target: SSB, Sjogren's syndrome antigen B (human) (UniProt P05455); assay: as above
[24] = biological target: Scl 70, scleroderma 70 (human) (UniProt P11387); assay: as above
[25] = biological target: Sm, small nuclear riboproteins (human); assay: as above
[26] = biological target: Cent B, centromere B (human) (UniProt P07199); assay: AtheNA Luminex, mAb at 6.25 (mg/mL [sic]); <100 negative
Histone (human) [27] = assay: as above
Jo 1 (human) [28] = biological target: Jo 1 (human) (UniProt P12081); assay: as above
[29] = biological target: RNP, ribonucleoprotein (human) (UniProt Q96LT9); assay: as above
[30] = biological target: SSA, Sjogren's syndrome antigen A (human); assay: as above
[31] = biological target: SSB, Sjogren's syndrome antigen B (human) (UniProt P05455); assay: as above
[32] = biological target: Scl 70, scleroderma 70 (human) (UniProt P11387); assay: as above
[33] = biological target: Sm, small nuclear riboproteins (human); assay: as above
[34] = biological target: SARS-CoV live virus spike (SARS-CoV) (UniProt P59594); assay: cell-based or functional assay
[35] = biological target: bat CoV RsSHC014 live virus spike (bat coronavirus RsSHC014); assay: cell-based or functional assay
[36] = biological target: bat CoV WIV-1 live virus spike (bat coronavirus WIV-1); assay: cell-based or functional assay

Chain of UniProt P08637 (P08637 17-208 limits assumed): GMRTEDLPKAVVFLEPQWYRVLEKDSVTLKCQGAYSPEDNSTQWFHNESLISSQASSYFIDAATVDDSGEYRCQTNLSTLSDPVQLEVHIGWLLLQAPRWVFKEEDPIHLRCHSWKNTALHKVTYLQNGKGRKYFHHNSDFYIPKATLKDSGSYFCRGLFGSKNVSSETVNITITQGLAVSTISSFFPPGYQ
Chain of UniProt P12314 (P12314 16-288 limits assumed): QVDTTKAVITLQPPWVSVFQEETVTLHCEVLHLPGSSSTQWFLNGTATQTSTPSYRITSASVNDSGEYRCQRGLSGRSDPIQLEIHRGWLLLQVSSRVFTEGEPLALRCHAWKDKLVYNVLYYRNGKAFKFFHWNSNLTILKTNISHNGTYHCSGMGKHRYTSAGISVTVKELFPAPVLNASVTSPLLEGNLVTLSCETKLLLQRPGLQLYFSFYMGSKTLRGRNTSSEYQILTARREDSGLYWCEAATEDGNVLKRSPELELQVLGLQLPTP

In the case of DH1042, the Kd [1] is reported as 0.6 nM and the Kd (SARS-CoV-2 spike-HexaPro) is reported as 0.8 nM.

Substance DH1042 (antibody) has a Kd (rhFcγRI/CD64 (human)) of 414000 nM, a Kd (rhFcγRIIIA/CD16a (human)) of 406 nM and an AtheNA value [2] of 26. For the same substance, the AtheNA value (Histone (human) [3]) was 6, the AtheNA value (Jo 1 (human) [4]) was 4 and the AtheNA value [5] was 4. The AtheNA value [6] was 2, the AtheNA value [7] was 5 and the AtheNA value [8] was 2. For the same substance, the AtheNA value [9] was 2, the AtheNA value [10] was 56 and the AtheNA value (Histone (human) [11]) was 9. For the same substance, the AtheNA value (Jo 1 (human) [12]) was 2, the AtheNA value [13] was 6 and the AtheNA value [14] was 2. For the same substance, the AtheNA value [15] was 4, the AtheNA value [16] was 1 and the AtheNA value [17] was 3. It also gave an AtheNA value [18] of 12, an AtheNA value (Histone (human) [19]) of 3 and an AtheNA value (Jo 1 (human) [20]) of 1. It also gave an AtheNA value [21] of 0, an AtheNA value [22] of 3 and an AtheNA value [23] of 2. For the same substance, the AtheNA value [24] was 0, the AtheNA value [25] was 1 and the AtheNA value [26] was 6. It also gave an AtheNA value (Histone (human) [27]) of 2, an AtheNA value (Jo 1 (human) [28]) of 2 and an AtheNA value [29] of 1. It also gave an AtheNA value [30] of 1, an AtheNA value [31] of 3 and an AtheNA value [32] of 1. For the same substance, the AtheNA value [33] was 3.

For DH1047, the Kd [1] was < 0.1 nM and the Kd (SARS-CoV-2 spike-HexaPro) was 0.08 nM.

For DH1047 (antibody), the live virus neutralization IC50 [34] was 0.028 µg/mL, the live virus neutralization IC50 [35] was 0.2 µg/mL and the live virus neutralization IC50 [36] was 0.191 µg/mL.
